# Experimental data reported in US12099068B2, “Biomarkers for graft-versus-host disease” (Incyte Corporation, priority 2018, dated 2024).
# Tested on: plasma proteins
# Assay: Plasma proteins modulated between baseline and day 28 in responders (CR, VGPR, PR; n = 19), Example 6 (Table 13)
# Assay type: in vivo, human
# Conditions: plasma protein (OLINK NPX); responders (CR, VGPR, PR; n = 19); itacitinib 200 mg or 300 mg QD with corticosteroids; day 28 vs baseline
# Procedure, shortened: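 Longitudinal comparison, day 28 versus baseline, with steroid-naive (N=10) and steroid-refractory (N=18) patients combined. Proteins measured by OLINK proximity extension, log2 normalized protein expression. Differences tested by t tests, ANOVA, Pearson correlation, P<0.05 significant.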
Molecule,"Fold Change, Decreased Expression from Baseline to Day 28","Fold Change, Increased Expression from Baseline to Day 28"
"IL-6RA (protein, UniProt P08887 20-468, looked up) Interleukin-6 receptor …: LAPRRCPAQEVARGVLTSLPGDSVTLTCPGVEPEDNATVHWVLRKPAAGSHPSRWAGMGRRLLLRSVQLHDSGNYSCYRAGRPAGTVHLLVDVPPEEPQLSCFRKSPLSNVVCEWGPRSTPSLTTKAVLLVRKFQNSPAEDFQEPCQYSQESQKFSCQLAVPEGDSSFYIVSMCVASSVGSKFSKTQTFQGCGILQPDPPANITVTAVARNPRWLSVTWQDPHSWNSSFYRLRFELRYRAERSKTFTTWMVKDLQHHCVIHDAWSGLRHVVQLRAQEEFGQGEWSEWSPEAMGTPWTESRSPPAENEVSTPMQALTTNKDDDNILFRDSANATSLPVQDSSSVPLPTFLVAGGSLAFGTLLCIAIVLRFKKTWKLRALKEGKTSMHPPYSLGQLVPERPRPTPVLVPLISPPVSPSSLGSDNTSSHNRPDARDPRSPYDISNTDYFFPR",−1.1901,
"FABP4 (protein, UniProt P15090 2-132, looked up) Fatty acid-binding protein, …: CDAFVGTWKLVSSENFDDYMKEVGVGFATRKVAGMAKPNMIISVNGDVITIKSESTFKNTEISFILGQEFDEVTADDRKVKSTITLDGGVLVHVQKWDGKSTTIKRKREDDKLVVECVMKGVTSTRVYERA",,1.6926
"CD40-L (protein, UniProt P29965 113-261, looked up) CD40 ligand, soluble form: MQKGDQNPQIAAHVISEASSKTTSVLQWAEKGYYTMSNNLVTLENGKQLTVKRQGLYYIYAQVTFCSNREASSQAPFIASLCLKSPGRFERILLRAANTHSSAKPCGQQSIHLGGVFELQPGASVFVNVTDPSQVSHGTGFTSFGLLKL",−1.5868,
"Gal-4 (protein, UniProt P56470 1-323, looked up) Galectin-4: MAYVPAPGYQPTYNPTLPYYQPIPGGLNVGMSVYIQGVASEHMKRFFVNFVVGQDPGSDVAFHFNPRFDGWDKVVFNTLQGGKWGSEERKRSMPFKKGAAFELVFIVLAEHYKVVVNGNPFYEYGHRLPLQMVTHLQVDGDLQLQSINFIGGQPLRPQGPPMMPPYPGPGHCHQQLNSLPTMEGPPTFNPPVPYFGRLQGGLTARRTIIIKGYVPPTGKSFAINFKVGSSGDIALHINPRMGNGTVVRNSLLNGSWGSEEKKITHNPFGPGQFFDLSIRCGLDRFKVYANGQHLFDFAHRLSAFQRVDTLEIQGDVTLSYVQI",,1.4274
"LAMP3 (protein, UniProt Q9UQV4 28-416, looked up) Lysosome-associated membrane …: KAFPETRDYSQPTAAATVQDIKKPVQQPAKQAPHQTLAARFMDGHITFQTAATVKIPTTTPATTKNTATTSPITYTLVTTQATPNNSHTAPPVTEVTVGPSLAPYSLPPTITPPAHTTGTSSSTVSHTTGNTTQPSNQTTLPATLSIALHKSTTGQKPVQPTHAPGTTAAAHNTTRTAAPASTVPGPTLAPQPSSVKTGIYQVLNGSRLCIKAEMGIQLIVQDKESVFSPRRYFNIDPNATQASGNCGTRKSNLLLNFQGGFVNLTFTKDEESYYISEVGAYLTVSDPETIYQGIKHAVVMFQTAVGHSFKCVSEQSLQLSAHLQVKTTDVQLQAFDFEDDHFGNVDECSSDYTIVLPVIGAIVVGLCLMGMGVYKIRLRCQSSGYQRI",−1.7705,
"GSAP (protein, UniProt A4D1B5 1-854, looked up) Gamma-secretase-activating …: MALRLVADFDLGKDVLPWLRAQRAVSEASGAGSGGADVLENDYESLHVLNVERNGNIIYTYKDDKGNVVFGLYDCQTRQNELLYTFEKDLQVFSCSVNSERTLLAASLVQSTKEGKRNELQPGSKCLTLLVEIHPVNNVKVLKAVDSYIWVQFLYPHIESHPLPENHLLLISEEKYIEQFRIHVAQEDGNRVVIKNSGHLPRDRIAEDFVWAQWDMSEQRLYYIDLKKSRSILKCIQFYADESYNLMFEVPLDISLSNSGFKLVNFGCDYHQYRDKFSKHLTLCVFTNHTGSLCVCYSPKCASWGQITYSVFYIHKGHSKTFTTSLENVGSHMTKGITFLNLDYYVAVYLPGHFFHLLNVQHPDLICHNLFLTGNNEMIDMLPHCPLQSLSGSLVLDCCSGKLYRALLSQSSLLQLLQNTCLDCEKMAALHCALYCGQGAQFLEAQIIQWISENVSACHSFDLIQEFIIASSYWSVYSETSNMDKLLPHSSVLTWNTEIPGITLVTEDIALPLMKVLSFKGYWEKLNSNLEYVKYAKPHFHYNNSVVRREWHNLISEEKTGKRRSAAYVRNILDNAVKVISNLEARNLGPRLTPLLQEEDSHQRLLMGLMVSELKDHFLRHLQGVEKKKIEQMVLDYISKLLDLICHIVETNWRKHNLHSWVLHFNSRGSAAEFAVFHIMTRILEATNSLFLPLPPGFHTLHTILGVQCLPLHNLLHCIDSGVLLLTETAVIRLMKDLDNTEKNEKLKFSIIVRLPPLIGQKICRLWDHPMSSNIISRNHVTRLLQNYKKQPRNSMINKSSFSVEFLPLNYFIEILTDIESSNQALYPFEGHDNVDAEFVEEAALKHTAMLLGL",−1.4153,
"CDIC (protein, UniProt P29017 18-333, looked up) T-cell surface glycoprotein …: NADASQEHVSFHVIQIFSFVNQSWARGQGSGWLDELQTHGWDSESGTIIFLHNWSKGNFSNEELSDLELLFRFYLFGLTREIQDHASQDYSKYPFEVQVKAGCELHSGKSPEGFFQVAFNGLDLLSFQNTTWVPSPGCGSLAQSVCHLLNHQYEGVTETVYNLIRSTCPRFLLGLLDAGKMYVHRQVRPEAWLSSRPSLGSGQLLLVCHASGFYPKPVWVTWMRNEQEQLGTKHGDILPNADGTWYLQVILEVASEEPAGLSCRVRHSSLGGQDIILYWGHHFSMNWIALVVIVPLVILIVLVLWFKKHCSYQDIL",−1.5651,
"IGFBP-2 (protein, UniProt P18065 36-325, looked up) Insulin-like growth …: AEVLFRCPPCTPERLAACGPPPVAPPAAVAAVAGGARMPCAELVREPGCGCCSVCARLEGEACGVYTPRCGQGLRCYPHPGSELPLQALVMGEGTCEKRRDAEYGASPEQVADNGDDHSEGGLVENHVDSTMNMLGGGGSAGRKPLKSGMKELAVFREKVTEQHRQMGKGGKHHLGLEEPKKLRPPPARTPCQQELDQVLERISTMRLPDERGPLEHLYSLHIPNCDKHGLYNLKQCKMSLNGQRGECWCVNPNTGKLIQGAPTIRGDPECHLFYNEQQEARGVHTQRMQ",−1.2058,
"COCH (protein, UniProt O43405 25-550, looked up) Cochlin: EGAAPIAITCFTRGLDIRKEKADVLCPGGCPLEEFSVYGNIVYASVSSICGAAVHRGVISNSGGPVRVYSLPGRENYSSVDANGIQSQMLSRWSASFTVTKGKSSTQEATGQAVSTAHPPTGKRLKKTPEKKTGNKDCKADIAFLIDGSFNIGQRRFNLQKNFVGKVALMLGIGTEGPHVGLVQASEHPKIEFYLKNFTSAKDVLFAIKEVGFRGGNSNTGKALKHTAQKFFTVDAGVRKGIPKVVVVFIDGWPSDDIEEAGIVAREFGVNVFIVSVAKPIPEELGMVQDVTFVDKAVCRNNGFFSYHMPNWFGTTKYVKPLVQKLCTHEQMMCSKTCYNSVNIAFLIDGSSSVGDSNFRLMLEFVSNIAKTFEISDIGAKIAAVQFTYDQRTEFSFTDYSTKENVLAVIRNIRYMSGGTATGDAISFTVRNVFGPIRESPNKNFLVIVTDGQSYDDVQGPAAAAHDAGITIFSVGVAWAPLDDLKDMASKPKESHAFFTREFTGLEPIVSDVIRGICRDFLESQQ",−1.22,
"PILRB (protein, UniProt Q9UKJ0 20-227, looked up) Paired immunoglobulin-like …: QPGGSTGSGPSYLYGVTQPKHLSASMGGSVEIPFSFYYPWELAIVPNVRISWRRGHFHGQSFYSTRPPSIHKDYVNRLFLNWTEGQESGFLRISNLRKEDQSVYFCRVELDTRRSGRQQLQSIKGTKLTITQAVTTTTTWRPSSTTTIAGLRVTESKGHSESWHLSLDTAIRVALAVAVLKTVILGLLCLLLLWWRRRKGSRAPSSDF",−1.3019,
"CLEC6A (protein, UniProt Q6EIG7 1-209, looked up) C-type lectin domain family 6 …: MMQEQQPQSTEKRGWLSLRLWSVAGISIALLSACFIVSCVVTYHFTYGETGKRLSELHSYHSSLTCFSEGTKVPAWGCCPASWKSFGSSCYFISSEEKVWSKSEQNCVEMGAHLVVFNTEAEQNFIVQQLNESFSYFLGLSDPQGNNNWQWIDKTPYEKNVRFWHLGEPNHSAEQCASIVFWKPTGWGWNDVICETRRNSICEMNKIYL",−1.3248,
"ATG4A (protein, UniProt Q8WYN0 1-398, looked up) Cysteine protease ATG4A: MESVLSKYEDQITIFTDYLEEYPDTDELVWILGKQHLLKTEKSKLLSDISARLWFTYRRKFSPIGGTGPSSDAGWGCMLRCGQMMLAQALICRHLGRDWSWEKQKEQPKEYQRILQCFLDRKDCCYSIHQMAQMGVGEGKSIGEWFGPNTVAQVLKKLALFDEWNSLAVYVSMDNTVVIEDIKKMCRVLPLSADTAGDRPPDSLTASNQSKGTSAYCSAWKPLLLIVPLRLGINQINPVYVDAFKECFKMPQSLGALGGKPNNAYYFIGFLGDELIFLDPHTTQTFVDTEENGTVNDQTFHCLQSPQRMNILNLDPSVALGFFCKEEKDFDNWCSLVQKEILKENLRMFELVQKHPSHWPPFVPPAKPEVTTTGAEFIDSTEQLEEFDLEEDFEILSV",−1.3651,
"TDRKH (protein, UniProt Q9Y2W6 1-561, looked up) Tudor and KH …: MSTERTSWTSLSTIQKIALGLGIPASATVAYILYRRYRESREERLTFVGEDDIEIEMRVPQEAVKLIIGRQGANIKQLRKQTGARIDVDTEDVGDERVLLISGFPVQVCKAKAAIHQILTENTPVSEQLSVPQRSVGRIIGRGGETIRSICKASGAKITCDKESEGTLLLSRLIKISGTQKEVAAAKHLILEKVSEDEELRKRIAHSAETRVPRKQPISVRREDMTEPGGAGEPALWKNTSSSMEPTAPLVTPPPKGGGDMAVVVSKEGSWEKPSDDSFQKSEAQAIPEMPMFEIPSPDFSFHADEYLEVYVSASEHPNHFWIQIVGSRSLQLDKLVNEMTQHYENSVPEDLTVHVGDIVAAPLPTNGSWYRARVLGTLENGNLDLYFVDFGDNGDCPLKDLRALRSDFLSLPFQAIECSLARIAPSGDQWEEEALDEFDRLTHCADWKPLVAKISSYVQTGISTWPKIYLYDTSNGKKLDIGLELVHKGYAIELPEDIEENRAVPDMLKDMATETDASLSTLLTETKKSSGEITHTLSCLSLSEAASMSGDDNLEDDYLL",−1.2785,
"GM-CSF-R-alpha (protein, UniProt P15509 23-400, looked up) Granulocyte-macrophage …: EKSDLRTVAPASSLNVRFDSRTMNLSWDCQENTTFSKCFLTDKKNRVVEPRLSNNECSCTFREICLHEGVTFEVHVNTSQRGFQQKLLYPNSGREGTAAQNFSCFIYNADLMNCTWARGPTAPRDVQYFLYIRNSKRRREIRCPYYIQDSGTHVGCHLDNLSGLTSRNYFLVNGTSREIGIQFFDSLLDTKKIERFNPPSNVTVRCNTTHCLVRWKQPRTYQKLSYLDFQYQLDVHRKNTQPGTENLLINVSGDLENRYNFPSSEPRAKHSVKIRAADVRILNWSSWSEAIEFGSDDGNLGSVYIYVLLIVGTLVCGIVLGFLFKRFLRIQRLFPPVPQIKDKLNDNHEVEDEIIWEEFTPEEGKGYREEVLTVKEIT",−1.4489,
